From article PMC4022583

Target: fluorescein labelled MPT peptide (UniProt P35579)
Assay: fluorescence polarisation; S100A4 variant and fluorescein labelled MPT peptide

In the case of “wild-type S100A4 (from UniProt P26447 1-101) (natural protein)”, the Kd is reported as 0.12 nM.
With “S100A4 C-terminal deletion mutant (residues 1-88, Δ13) (from UniProt P26447 1-88) (domain or fragment)” the Kd was 0.28 nM.
